Laboratory results from PMC10868842, “Structural basis of the recognition of adeno-associated virus by the neurological system-related receptor carbonic anhydrase IV” (PLOS Pathogens, 2024).

B1: Mus musculus carbonic anhydrase IV (Car4), amino acids W22 to S277 (receptor)
chain: WCYEIQTKDPRSSCLGPEKWPGACKENQQSPINIVTARTKVNPRLTPFILVGYDQKQQWPIKNNQHTVEMTLGGGACIIGGDLPARYEAVQLHLHWSNGNDNGSEHSIDGRHFAMEMHIVHKKLTSSKEDSKDKFAVLAFMIEVGDKVNKGFQPLVEALPSISKPHSTSTVRESSLQDMLPPSTKMYTYFRYNGSLTTPNCDETVIWTVYKQPIKIHKNQFLEFSKNLYYDEDQKLNMKDNVRPLQPLGKRQVFKS
notes: carbonic anhydrase IV (Car4), Mus musculus, residues 22-277 (W22 to S277); the functional rows use this molecule for Car4; also called wt Car4; truncated Car4 (22-277); not shown: GST, N-terminal, cleaved
B2: Car4 (22-277) V72S (mouse residue changed to its hCar4 counterpart) (receptor, Mus musculus, UniProt Q64444 22-277, looked up)
chain: WCYEIQTKDPRSSCLGPEKWPGACKENQQSPINIVTARTKVNPRLTPFILSGYDQKQQWPIKNNQHTVEMTLGGGACIIGGDLPARYEAVQLHLHWSNGNDNGSEHSIDGRHFAMEMHIVHKKLTSSKEDSKDKFAVLAFMIEVGDKVNKGFQPLVEALPSISKPHSTSTVRESSLQDMLPPSTKMYTYFRYNGSLTTPNCDETVIWTVYKQPIKIHKNQFLEFSKNLYYDEDQKLNMKDNVRPLQPLGKRQVFKS
notes: carbonic anhydrase IV (Car4), Mus musculus, residues 22-277; also called V72S_(Car4); source: E. coli BL21 (DE3), purified as the wild type; not shown: GST, N-terminal, cleaved
B3: Car4 (22-277) E90M (mouse residue changed to its hCar4 counterpart) (receptor, Mus musculus, UniProt Q64444 22-277, looked up)
chain: WCYEIQTKDPRSSCLGPEKWPGACKENQQSPINIVTARTKVNPRLTPFILVGYDQKQQWPIKNNQHTVMMTLGGGACIIGGDLPARYEAVQLHLHWSNGNDNGSEHSIDGRHFAMEMHIVHKKLTSSKEDSKDKFAVLAFMIEVGDKVNKGFQPLVEALPSISKPHSTSTVRESSLQDMLPPSTKMYTYFRYNGSLTTPNCDETVIWTVYKQPIKIHKNQFLEFSKNLYYDEDQKLNMKDNVRPLQPLGKRQVFKS
notes: carbonic anhydrase IV (Car4), Mus musculus, residues 22-277; also called E90M_(Car4); source: E. coli BL21 (DE3), purified as the wild type; not shown: GST, N-terminal, cleaved
B4: Car4 (22-277) T92A (receptor, Mus musculus, UniProt Q64444 22-277, looked up)
chain: WCYEIQTKDPRSSCLGPEKWPGACKENQQSPINIVTARTKVNPRLTPFILVGYDQKQQWPIKNNQHTVEMALGGGACIIGGDLPARYEAVQLHLHWSNGNDNGSEHSIDGRHFAMEMHIVHKKLTSSKEDSKDKFAVLAFMIEVGDKVNKGFQPLVEALPSISKPHSTSTVRESSLQDMLPPSTKMYTYFRYNGSLTTPNCDETVIWTVYKQPIKIHKNQFLEFSKNLYYDEDQKLNMKDNVRPLQPLGKRQVFKS
notes: carbonic anhydrase IV (Car4), Mus musculus, residues 22-277; also called T92A_(Car4); source: E. coli BL21 (DE3), purified as the wild type; not shown: GST, N-terminal, cleaved
B5: Car4 (22-277) H187E (mouse residue changed to its hCar4 counterpart) (receptor, Mus musculus, UniProt Q64444 22-277, looked up)
chain: WCYEIQTKDPRSSCLGPEKWPGACKENQQSPINIVTARTKVNPRLTPFILVGYDQKQQWPIKNNQHTVEMTLGGGACIIGGDLPARYEAVQLHLHWSNGNDNGSEHSIDGRHFAMEMHIVHKKLTSSKEDSKDKFAVLAFMIEVGDKVNKGFQPLVEALPSISKPESTSTVRESSLQDMLPPSTKMYTYFRYNGSLTTPNCDETVIWTVYKQPIKIHKNQFLEFSKNLYYDEDQKLNMKDNVRPLQPLGKRQVFKS
notes: carbonic anhydrase IV (Car4), Mus musculus, residues 22-277; also called H187E_(Car4); source: E. coli BL21 (DE3), purified as the wild type; not shown: GST, N-terminal, cleaved
B6: Car4 (22-277) Q79A (receptor, Mus musculus, UniProt Q64444 22-277, looked up)
chain: WCYEIQTKDPRSSCLGPEKWPGACKENQQSPINIVTARTKVNPRLTPFILVGYDQKQAWPIKNNQHTVEMTLGGGACIIGGDLPARYEAVQLHLHWSNGNDNGSEHSIDGRHFAMEMHIVHKKLTSSKEDSKDKFAVLAFMIEVGDKVNKGFQPLVEALPSISKPHSTSTVRESSLQDMLPPSTKMYTYFRYNGSLTTPNCDETVIWTVYKQPIKIHKNQFLEFSKNLYYDEDQKLNMKDNVRPLQPLGKRQVFKS
notes: carbonic anhydrase IV (Car4), Mus musculus, residues 22-277; also called Q79A_(Car4); source: E. coli BL21 (DE3), purified as the wild type; not shown: GST, N-terminal, cleaved
B7: Car4 (22-277) I70A (receptor, Mus musculus, UniProt Q64444 22-277, looked up)
chain: WCYEIQTKDPRSSCLGPEKWPGACKENQQSPINIVTARTKVNPRLTPFALVGYDQKQQWPIKNNQHTVEMTLGGGACIIGGDLPARYEAVQLHLHWSNGNDNGSEHSIDGRHFAMEMHIVHKKLTSSKEDSKDKFAVLAFMIEVGDKVNKGFQPLVEALPSISKPHSTSTVRESSLQDMLPPSTKMYTYFRYNGSLTTPNCDETVIWTVYKQPIKIHKNQFLEFSKNLYYDEDQKLNMKDNVRPLQPLGKRQVFKS
notes: carbonic anhydrase IV (Car4), Mus musculus, residues 22-277; also called I70A_(Car4); source: E. coli BL21 (DE3), purified as the wild type; not shown: GST, N-terminal, cleaved

Biological target: T1, AAV9P31 capsid (adeno-associated virus 9 variant with the 7-mer WPTSYDA inserted in VP3 VR-VIII) (adeno-associated virus 9, UniProt Q6JC40 1-736, WPTSYDA inserted between Q588 and A589)
T1 construct: Assembled icosahedral virus particle carrying a GFP genome; capsids made from a RepCap plasmid usually hold VP1, VP2 and VP3 (surmise); also called AAV9P31 particles; AAV9P31 virion; source: HEK293T, triple-plasmid transfection, purified (iodixanol gradient ultracentrifugation)
Assay: cryo-EM structure; AAV9P31 on the grid, Car4 (W22-S277) added and incubated for 5 minutes; icosahedral reconstruction and block-based reconstruction of the 3-fold axis blocks
Conditions: both partners purified

For B1, the “stoichiometry N” value was about 3 Car4 per virion.

Biological target: T1, AAV9P31 capsid (adeno-associated virus …)
Assay: SPR; BIAcore 8K; AAV9P31 particles immobilised on a CM5 chip by amide coupling (sodium acetate pH 4.0); WT or mutated Car4 proteins flowed over at 30 ul/min, 25 °C, PBST; regeneration with 10 mM glycine pH 2.0
Conditions: both partners purified

Compared with B1, B2 is 1.7-fold lower in Kd: 106 nM for the first, 60.7 nM for the second. The second binds more tightly here.

Compared with B3, B4 is 12-fold higher in Kd: 32.3 nM for the first, 379 nM for the second. The first binds more tightly here.

First: B5
Second: B6
The Kd of the first is 1400-fold lower: 0.206 nM for the first, 292 nM for the second.

Binder B7 has a Kd of 743 nM.
